Experimental data reported in paper PMC4164303 (Science (New York, N.Y.), 2014).

Biological target: the molecule itself
Experiment: AUC

B1: EC1–2 of mouse E-cadherin (domain or fragment)
chain: DWVIPPISCPENEKGEFPKNLVQIKSNRDKETKVFYSITGQGADKPPVGVFIIERETGWLKVTQPLDREAIAKYILYSHAVSSNGEAVEDPMEIVITVTDQNDNRPEFTQEVFEGSVAEGAVPGTSVMKVSATDADDDVNTYNAAIAYTIVSQDPELPHKNMFTVNRDTGVISVLTSGLDRESYPTYTLVVQAADLQGEGLSTTAKAVITVKD
Question: With B1 as the protein, how does the Kd read?
Answer: ~175 µM
